Laboratory results published in the RNAGym collection of RNA variant scans (doi:10.1073/pnas.2313332121).
Variants at the floor of the assay were thinned out.

B1: TPR 5TU (parent)
chain: GGAUCUUCUCGAUCUAACAAAAAAGACAAAUCUGCCACAAAGCUUGAGAGCAUCUUCGGAUGCAGAGGCGGCAGCCUUCGGUGGCGCGAUAGCGCCAACGUUCUCAACUAUGACACGCAAAACGCGUGCUCCGUUGAAUGGAGUUUAUCAUG

Variants of: B1
Assay: polymerase ribozyme fitness, log enrichment relative to wild type (log ratio); higher = more active; in vitro selection for triplet polymerase activity
Outline: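 Each subunit of a heterodimeric triplet polymerase ribozyme was mutagenized into a library by PCR, transcribed, and subjected to one round of in vitro selection, run in triplicate. Libraries were annealed with a biotinylated primer, the partner subunit and triplets, incubated frozen at −7 °C, and extended constructs were gel-excised, captured on streptavidin beads and recovered by RT-PCR. Input and output libraries were sequenced on Illumina, keeping genotypes with ≥10 input reads and ≥1 read per output. Fitness is log base 2 of genotype enrichment divided by wild-type enrichment, from inverse-variance-weighted replicate averages.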

Variant	polymerase ribozyme fitness (log ratio)
C85U G128A	-3.29
C87U C116A	1.21
C87U U90C C99G	-3.53
G88C C108G	≤ -4.2
A89G U146G C149G	-4.1
G88A C118A A120G	≤ -4.2
C87G A142G	-4.14
C87G G141C	-3.99
G86A G143A	-1.25
G86A G143U	-3.07
G86A G143C	-2.14
G86U G88C A119C U127A U144G	≤ -4.2
A89U A121U	-0.72
G88C A89C C95U	≤ -4.2
C85U U104G	-0.929
C87U U90C U134A A138U G143A	≤ -4.2
C87U A120G	-1.85
G88A C149U	-4.04
A89C G94C	-1.57
C87U A137G U148C	-3.87
G86U U102G A150U	-3.59
G86A A89U	-1.96
G86C U101G	-2.8
C87U A115U	-1.73

Variant	polymerase ribozyme fitness (log ratio)
C87G C105U U127C	-4.1
C85U U151G	-4.14
G86A C99G	-3.06
A89C A97U U101G A110G U134G G141A	≤ -4.2
C87U G92C	-0.38
G86U G88U G94U A150U	≤ -4.2
G86U U90G C103A A119C A121C A138C	≤ -4.2
A89C U130A	-3.07
G86A U102G	-4.05
A89U C99G G126A C132G	-4.08
C85U G126U U139A U144C	-3.59
G86A C87G	-3.97
C87U A137G	-1.81
C87U A137C	-3.99
A89C C96A A115G	-2.74
G86C U101A U104G A107C G112C	≤ -4.2
G86U A89G U145A	-3.28
A89U A150U	1.51
A89U A150G	-0.42
C87U U146G	-0.864
A89C A142G	-1.52
C85U G124U	-0.801
G88U U90C G133C A137C	≤ -4.2
C85U U127C U145A	-3.58

Variant	polymerase ribozyme fitness (log ratio)
A89C	-0.82
A89U	-0.292
A89G	-0.999
G88A G117U	-3.84
A89C C105U	0.174
G86U C96A	-2.89
G86U G141A U146C	-1.62
G86C C105U	-1.5
G86U C93A G94A	-0.505
C87U A120G A121C A147U U148C	-2.38
G88A G94A C99G C103G U104A A107G	≤ -4.2
G86A A89U C123U	-2.1
C87G G152U	-3.57
G88U C99A	-4.1
G88U C99U	-4.12
C87U C93G A121U C132A	≤ -4.2
C85U U90C	-3.89
C87A A115C	-4.1
G86C U101G G124U G152A	-4.15
G88A G124C	≤ -4.2
G88U C108A	≤ -4.2
C87U C108U	-3.61
C87G G92C G126A	0.48
G86A C103G U134A	≤ -4.2

Variant	polymerase ribozyme fitness (log ratio)
C87U A110G G112U	≤ -4.2
G86A A142C	-2.27
G88U C149U	≤ -4.2
C85U G117A	0.212
C85U G117U	0.675
G86C U104A	-2.46
A89C C95G	-3.24
A89C C95U	-1.49
C87A A147G	≤ -4.2
C87G G92C C125U U127G U135G G141C	≤ -4.2
C85U G143A	0.273
C85U G133C	-1.69
C85U G133U	-2.28
C85U U134A	-3.04
C85U U134G	-2.89
A89G C125U C132U	-1.73
C85U U127A	-3.36
C85U U127C	-2.51
C87A U101G G124A A142C	-4.02
G86U G88A A150C	≤ -4.2
C85U U101G C105A U109G A110G	-4.19
C87A C125U A137U	≤ -4.2
C87A A150G	≤ -4.2
C87G A98G	≤ -4.2

Variant	polymerase ribozyme fitness (log ratio)
C87G A98U	-3.64
C87U G152C	-3.17
C87U A121U	-0.38
C87U A150G G152U	≤ -4.2
G86C C96U	-2.67
A89C C123A G128U	-3.31
G86A G94C C132U G141C	≤ -4.2
G86C U109G C118G	-3.5
A89C C93U G136C	≤ -4.2
A89G C125A	-1.77
C87A G124U	≤ -4.2
C87U U148A	-3.62
G88A U127G C129U	≤ -4.2
C87G C116U	-3.77
G86U G140U	-3.83
C85U G140A	-3.24
C87A G100U	≤ -4.2
G86U	-1.62
G86A	-0.877
G86C	-2.55
G86A G141U	-1.07
C87G C105U A137C A150U	≤ -4.2
G88A A89G	-3.67
C87U A142G	-0.623

Variant	polymerase ribozyme fitness (log ratio)
G88C C105G G128C A142C	≤ -4.2
A89G C99G C116A	-1.92
C85U G152U	-3.73
C87G A110C U146G C149A	≤ -4.2
C87A A107C	≤ -4.2
C87U C118G	-1.33
C87A G88A G117A A119G	≤ -4.2
G86C G92A	≤ -4.2
G86A C103G C123U	-3.36
G86U A107G G143C U151A	≤ -4.2
G88C G100C A106G U146C	≤ -4.2
C87A G112C C116G	≤ -4.2
C87U C114G	-2.79
C87A C105U A107U	≤ -4.2
C87U A89G	-3.41
C85U U130G	-3.71
G88A A98U A106C	≤ -4.2
C87U C132G	-3.72
C87U C132U	-1.11
G86U G100U	≤ -4.2
C87G U111G	≤ -4.2
G88C A115U G117U C131G U135G	≤ -4.2
G88U A91G	≤ -4.2
G88U G117U A142C	≤ -4.2

Variant	polymerase ribozyme fitness (log ratio)
A89G C99G U102A C123G U135C U145G	≤ -4.2
C85U U145A	-0.468
C85U U145G	-2
A89U A142C U146C A150U	-3.99
A89C U148C	-3.51
C87U A91G C105G	-4.02
G86C C99G U109G C129A U148G	≤ -4.2
G88A C105A A147C U151G	≤ -4.2
G88C C116U	-3.99
G86U G143A	-2.53
A89G G92U	-2.48
A89U A91U C116U	≤ -4.2
A89U C123U	0.89
C87U A98C	-1.07
C87U A98G	-1.67
C87U G117C U144A	-1.27
C87U C118U G143C	-2.54
C85U U101G	-1.15
C85U U101A	-0.791
C87U C118U A147U	-0.411
A89U C103U A106C G117A	-2.14
C87U A150C	-3.7
C87U A98G A106G	-1.08
